In article PMC10014064 one finds effect of ifenprodil (5 μM, GluN2B antagonist) on NMDAR EPSCs in infant neurons previously incubated with the Y188 antibody against the APP C-terminal, versus the control condition and reduction in NMDAR EPSCs in CA1 pyramidal neurons of infant mice with the APP C-terminal antibody Y188 (2.5 nM) in the recording pipette, compared with boiled Y188 data, which are given here for 1 substance.

Assay [1] concerns the target amyloid precursor protein (APP), mouse (mouse (endogenous in C57BL/6 hippocampus)).
Assay [2] has the same target. This is another data set of the same source.

Substance “GluN2B subunit of the NMDA receptor, mouse (from UniProt Q01097 27-1482)” returned an effect of ifenprodil (5 μM, GluN2B antagonist) on NMDAR EPSCs in infant neurons previously incubated with the Y188 antibody against the APP C-terminal, versus the control condition in assay [1] of 19.8%. Also, the reduction in NMDAR EPSCs in CA1 pyramidal neurons of infant mice with the APP C-terminal antibody Y188 (2.5 nM) in the recording pipette, compared with boiled Y188 in assay [2] is 21.1%.
